{"source": "patent US20220135665A1", "target": "recombinant human VEGF165 protein (human) (UniProt P15692)", "test": "cell-based or functional assay"}
{"substance": "Conbercept (Fc fusion)", "values": [{"measurement": "EC50(nM), neutralization of HUVEC proliferation, VEGF165 at 10 ng/mL", "value": 0.18, "unit": "nM"}, {"measurement": "EC50(nM), neutralization of HUVEC proliferation, VEGF165 at 100 ng/mL", "value": 2.86, "unit": "nM"}, {"measurement": "EC50(nM), neutralization of HUVEC proliferation, VEGF165 at 1000 ng/mL", "value": 29, "unit": "nM"}, {"measurement": "Maximum neutralization rate (%), VEGF165 at 10 ng/mL", "value": 102, "unit": "%"}, {"measurement": "Maximum neutralization rate (%), VEGF165 at 100 ng/mL", "value": 99.7, "unit": "%"}, {"measurement": "Maximum neutralization rate (%), VEGF165 at 1000 ng/mL", "value": 108, "unit": "%"}]}
{"substance": "EYLEA (Aflibercept) (Fc fusion)", "values": [{"measurement": "EC50(nM), neutralization of HUVEC proliferation, VEGF165 at 10 ng/mL", "value": 0.15, "unit": "nM"}, {"measurement": "EC50(nM), neutralization of HUVEC proliferation, VEGF165 at 100 ng/mL", "value": 2.56, "unit": "nM"}, {"measurement": "EC50(nM), neutralization of HUVEC proliferation, VEGF165 at 1000 ng/mL", "value": 32.4, "unit": "nM"}, {"measurement": "Maximum neutralization rate (%), VEGF165 at 10 ng/mL", "value": 92.7, "unit": "%"}, {"measurement": "Maximum neutralization rate (%), VEGF165 at 100 ng/mL", "value": 89.6, "unit": "%"}, {"measurement": "Maximum neutralization rate (%), VEGF165 at 1000 ng/mL", "value": 76.7, "unit": "%"}]}
